Results taken from article PMC8835725, “Cryo‐EM structure of the full‐length Lon protease from Thermus thermophilus” (Febs Letters, 2021).
“And” between values parts separate entries of the source, which are not always exact repeats. Equal entries are not always repeated.

How the values were obtained:
[1] = target: the molecule itself; assay: electron microscopy on grids; purified EcLon on EM grids
[2] = target: the molecule itself; assay: SEC + other: negative staining electron microscopy; Superose 6 Increase 10/300 GL in buffer A (50 mM Tris/HCl, 200 mM NaCl, pH 8.0); oligomer size by column calibration, verified by negative staining EM

Protein | stoichiometry N [1] | stoichiometry N [2]
Lon protease from Escherichia coli, full length (enzyme, UniProt P0A9M0 1-784, looked up, Lon protease, Escherichia coli, UniProt P0A9M0, full length, untagged after SUMO cleavage; Seen as a mixture of hexamers and dodecamers on EM grids; also called EcLon; EcLon^FL; source: E. coli C41(DE3), purified (Ni-NTA, SUMO tag cleaved with SENP protease, Superose 6 Increase SEC); not shown: His6, N-terminal, cleaved; SUMO, N-terminal, cleaved) MNPERSERIEIPVLPLRDVVVYPHMVIPLFVGREKSIRCLEAAMDHDKKIMLVAQKEASTDEPGVNDLFTVGTVASILQMLKLPDGTVKVLVEGLQRARISALSDNGEHFSAKAEYLESPTIDEREQEVLVRTAISQFEGYIKLNKKIPPEVLTSLNSIDDPARLADTIAAHMPLKLADKQSVLEMSDVNERLEYLMAMMESEIDLLQVEKRIRNRVKKQMEKSQREYYLNEQMKAIQKELGEMDDAPDENEALKRKIDAAKMPKEAKEKAEAELQKLKMMSPMSAEATVVRGYIDWMVQVPWNARSKVKKDLRQAQEILDTDHYGLERVKDRILEYLAVQSRVNKIKGPILCLVGPPGVGKTSLGQSIAKATGRKYVRMALGGVRDEAEIRGHRRTYIGSMPGKLIQKMAKVGVKNPLFLLDEIDKMSSDMRGDPASALLEVLDPEQNVAFSDHYLEVDYDLSDVMFVATSNSMNIPAPLLDRMEVIRLSGYTEDEKLNIAKRHLLPKQIERNALKKGELTVDDSAIIGIIRYYTREAGVRGLEREISKLCRKAVKQLLLDKSLKHIEINGDNLHDYLGVQRFDYGRADNENRVGQVTGLAWTEVGGDLLTIETACVPGKGKLTYTGSLGEVMQESIQAALTVVRARAEKLGINPDFYEKRDIHVHVPEGATPKDGPSAGIAMCTALVSCLTGNPVRADVAMTGEITLRGQVLPIGGLKEKLLAAHRGGIKTVLIPFENKRDLEEIPDNVIADLDIHPVKRIEEVLTLALQNEPSGMQVVTAK | 6 and 12 | –
N-terminally truncated mutant EcLon^253-784 (domain or fragment, Escherichia coli, UniProt P0A9M0 253-784, looked up, Lon protease, Escherichia coli, UniProt P0A9M0, residues 253-784 (lacks the NTD and the collar); Tags and their cleavage follow from 'produced as described for full-length EcLon'; also called EcLon truncation including residues 253 to 784; source: E. coli C41(DE3), purified, produced as described for full-length EcLon; not shown: His6, N-terminal, cleaved; SUMO, N-terminal, cleaved) ALKRKIDAAKMPKEAKEKAEAELQKLKMMSPMSAEATVVRGYIDWMVQVPWNARSKVKKDLRQAQEILDTDHYGLERVKDRILEYLAVQSRVNKIKGPILCLVGPPGVGKTSLGQSIAKATGRKYVRMALGGVRDEAEIRGHRRTYIGSMPGKLIQKMAKVGVKNPLFLLDEIDKMSSDMRGDPASALLEVLDPEQNVAFSDHYLEVDYDLSDVMFVATSNSMNIPAPLLDRMEVIRLSGYTEDEKLNIAKRHLLPKQIERNALKKGELTVDDSAIIGIIRYYTREAGVRGLEREISKLCRKAVKQLLLDKSLKHIEINGDNLHDYLGVQRFDYGRADNENRVGQVTGLAWTEVGGDLLTIETACVPGKGKLTYTGSLGEVMQESIQAALTVVRARAEKLGINPDFYEKRDIHVHVPEGATPKDGPSAGIAMCTALVSCLTGNPVRADVAMTGEITLRGQVLPIGGLKEKLLAAHRGGIKTVLIPFENKRDLEEIPDNVIADLDIHPVKRIEEVLTLALQNEPSGMQVVTAK | – | 6
Lon protease from Thermus thermophilus (enzyme, UniProt Q72KS4 1-795, looked up, Lon protease, Thermus thermophilus, UniProt Q72KS4, full length, untagged and unmodified after SUMO cleavage; Homo-hexamer; cryo-EM sample in buffer A with 1 mM AMP-PNP and 5 mM MgCl2; also called TtLon; Lon from T. thermophilus; source: E. coli C41(DE3), purified (Ni-NTA, SUMO tag cleaved with SENP protease, Superose 6 Increase SEC); not shown: His6, N-terminal, cleaved; SUMO, N-terminal, cleaved) MKDFLRLELPVLPLRNTVVLPHTTTGVDVGRLKSKRAVEEALSADRLLFLVTQKDPEVDDPAPEDLYAVGTLAVVKQAMRLPDGTLQVMVEARSRARLLSYVAAPYLRAVGEAIPEPPLKDPELARVLVNEVQEAFERYLQNHKTLRLDRYQQEAVKSTRDPAILADLVAHHATWTLEEKQTILETPEVEERLKRVLALLLRDLERFELDKKIAARVKEQMDQNQREYYLREQMKAIQKELGGGEDFLTEIEELRERIEKKGMPEPVKEKALKELKRLERMQPGSPEATVSRTYLDWLLEVPWTEADPEVLDISVTKRVLDEDHYGLKEVKERILEYLAVRQLTQGKEVKGHAPILCFVGPPGVGKTSLGKSIARSMNRRFHRISLGGVRDEAEIRGHRRTYIGALPGKIIQGMKQVGVVNPVFLLDEIDKLSSDWRGDPAAALLEVLDPEQNHTFTDHYLDVPYDLSKVFFITTANTLSTIPRPLLDRMEVIEIPGYTLHEKRAIARYFRWPFQVKEAGLEGRLEITDRAIERIVQEYTREAGVRNLDRELSKVARKAAKDYLEKPWEGVRVVDAEDLEAYLGVPKYRPDRAEKEPQVGAAQGLAWTPYGGTLLTIEAVAVPGTGKVNLTGNLGEVMKESAHAALTYLRAHREEWGLPEGFHKDYDLHIHVPEGATPKDGPSAGITIATALASALTGRPVRMDIAMTGEITLRGRVLPIGGVKEKLLAAHQAGIHRVILPKENAAELKEVPEEILKDLEIHFVEEVGEVLKLLLLPPPPPPAVQPDRPQPGVGA | – | 6
